Target: purified human SLAMF4 (hSLAMF4) protein, recombinant (human) (UniProt Q9BZW8)
Experiment: MST; Monolith NT.115; GST–lytC_22 in a gradient (11 to 0.34375 μg μl^-1) mixed 1:1 (vol/vol) with 0.2 μg μl^-1 fluorescently pre-labelled recombinant Slamf4, 30 min at room temperature; medium MST power; apparent

UniProt Q9BZW8, sequence (Q9BZW8 22-229): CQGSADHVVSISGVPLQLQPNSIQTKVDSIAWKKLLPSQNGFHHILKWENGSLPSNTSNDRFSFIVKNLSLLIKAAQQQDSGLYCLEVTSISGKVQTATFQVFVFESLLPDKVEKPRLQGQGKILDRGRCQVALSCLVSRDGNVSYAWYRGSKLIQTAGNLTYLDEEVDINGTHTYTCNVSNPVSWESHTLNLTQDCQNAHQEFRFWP

“GST–lytC_22 (recombinant glutathione S-transferase-tagged N-acetylmuramoyl-L-alanine amidase lytC_22 of P. anaerobius) (natural protein)” gave a Kd of 40.1 nM.

From publication PMC11153135
